Experimental findings from patent US20160017295A1 are described below.

Holding throughout (assay): cell-based or functional assay
The target in assay [1] is wild-type AAV8 capsid (recombinant AAV-GFP vector) (AAV8 (adeno-associated virus type 8)).
For assay [2], the target named is wild-type AAV1 capsid (recombinant AAV-GFP vector) (AAV1 (adeno-associated virus type 1)).
Assay [3] concerns the target SM 10-2 variant AAV capsid (Adeno-associated virus 2 (isolate Srivastava/1982) (AAV-2)) (UniProt P03135).
Assay [4] addresses wild-type AAV2 capsid (recombinant AAV-GFP vector) (AAV2 (adeno-associated virus type 2)) (UniProt P03135).
The target in assay [5] is SM 10-8 variant AAV capsid (Adeno-associated virus 2 (isolate Srivastava/1982) (AAV-2)) (UniProt P03135).
Assay [6] has as its target SM 100-3 variant AAV capsid (Adeno-associated virus 2 (isolate Srivastava/1982) (AAV-2)) (UniProt P03135).
Assay [7] addresses variant γ4.3 (AAV2 capsid with N312K, N449D, N551S, I698V) (AAV2 (adeno-associated virus type 2)) (UniProt P03135).
The target in assay [8] is SM 100-10 variant AAV capsid (Adeno-associated virus 2 (isolate Srivastava/1982) (AAV-2)) (UniProt P03135).
The target in assay [9] is Variant 1.45 (AAV2 capsid with N312K, N449D) (AAV2 (adeno-associated virus type 2)) (UniProt P03135).

Turning to “human IVIG (Gamimune N, 10% Human IVIG, Bayer)”, the Fold Resistance Relative to AAV2 was determined as 6.11 fold in assay [1]; 1.76 fold in assay [2]; 7.52 fold in assay [3]; 1 fold in assay [4]; 3.41 fold in assay [5]; 4.94 fold in assay [6]. In [8], the Fold Resistance Relative to AAV2 came out at 4.39 fold. Besides, the Neutralizing IVIG concentration mg/ml (reduces gene delivery efficiency to 50%) in [1] came to 0.092 mg/mL; in [2] it was 0.026 mg/mL; in assay [3], 0.113 mg/mL; in assay [4], 0.015 mg/mL; in assay [5] it was 0.051 mg/mL; in assay [6] it was 0.074 mg/mL. The substance also registered a Neutralizing IVIG concentration mg/ml (reduces gene delivery efficiency to 50%) in [8] of 0.066 mg/mL. Besides, the enhanced resistance to IVIg compared to wild-type AAV2 in assay [7] is 3.1 fold; in [9], 1.23 fold.
